Experimental data: patent US6960559

Test system: T1, cbz-FAF[125I]Y-NH2
T1 sequence: FAFY

B1: papain (enzyme, UniProt P00784 134-345, looked up)
Papain: IPEYVDWRQKGAVTPVKNQGSCGSCWAFSAVVTIEGIIKIRTGNLNEYSEQELLDCDRRSYGCNGGYPWSALQLVAQYGIHYRNTYPYEGVQRYCRSREKGPYAAKTDGVRQVQPYNEGALLYSIANQPVSVVLEAAGKDFQLYRGGIFVGPCGNKVDHAVAAVGYGPNYILIKNSWGTGWGENGYIRIKRGTGNSYGVCGLYTSSFYPVKN
  Amount necessary to degrade 50% of substrate in 30 min: 2 µg
